Laboratory results taken from article PMC5412568 (The Journal of Cell Biology, 2017).
Like-named read-outs stand apart in the source and are kept apart here.

Experiments:
[1] = target: the molecule itself; assay: protein-induced fluorescence enhancement
[2] = target: the molecule itself; assay: protein-induced fluorescence enhancement; remark: listed apart in the source
[3] = target: cytoDATL (aa 1-415) K320G with super YFP at the C terminus (D. melanogaster, UniProt Q9VC57 1-415, K320G); assay: FRET or BRET

Binder	binding result [1]	further results
cytoDATL (aa 1-415) G343C, K320T (domain or fragment, Cy3 maleimide on the engineered cysteine G343C in the PIFE assays; unlabelled in cross-linking) MGGSAVQVINASEEHTFVLNEDALSEVLMRDEVKDRFVCVVSVAGAFRKGKSFLLDFFLRYMYSKYVHHDATDWLGGESDPLEGFSWRGGSERDTTGILMWSDIFLHDYPNGDKIAIILLDTQGAFDSQSTVRDCATVFALSTMLSSVQIYNLSQNIQEDDLQHLQLFTEYGRLALADTGKKPFQRLQFLVRDWSFPYEAEYGALGGDKILKRRLEVSDKQHPELQSLRRHISSCFTEVACFLMPHPGLNVATNPKFDGRLQDITPEFKSSLRSLVPMLLAPDNLVYKEISGQRVRARDLIQYFQSYMNIYKGNELPEPTSMLVATAEANHLTAVAAAKELYCQLMEEVCGGTRPYLSTAHLQTEHLRVKDKALFQFAAKRKMGGEEFTEKFRKQLEDDLEEVFTNYQAHNESKN	binds	
cytoDATL (aa 1-415) G343C, K320M (domain or fragment, Cy3 maleimide on the engineered cysteine G343C in the PIFE assays; unlabelled in cross-linking) MGGSAVQVINASEEHTFVLNEDALSEVLMRDEVKDRFVCVVSVAGAFRKGKSFLLDFFLRYMYSKYVHHDATDWLGGESDPLEGFSWRGGSERDTTGILMWSDIFLHDYPNGDKIAIILLDTQGAFDSQSTVRDCATVFALSTMLSSVQIYNLSQNIQEDDLQHLQLFTEYGRLALADTGKKPFQRLQFLVRDWSFPYEAEYGALGGDKILKRRLEVSDKQHPELQSLRRHISSCFTEVACFLMPHPGLNVATNPKFDGRLQDITPEFKSSLRSLVPMLLAPDNLVYKEISGQRVRARDLIQYFQSYMNIYKGNELPEPMSMLVATAEANHLTAVAAAKELYCQLMEEVCGGTRPYLSTAHLQTEHLRVKDKALFQFAAKRKMGGEEFTEKFRKQLEDDLEEVFTNYQAHNESKN	binds	
cytoDATL (aa 1-415) G343C, P317G (domain or fragment, Cy3 maleimide on the engineered cysteine G343C in the PIFE assays; unlabelled in cross-linking) MGGSAVQVINASEEHTFVLNEDALSEVLMRDEVKDRFVCVVSVAGAFRKGKSFLLDFFLRYMYSKYVHHDATDWLGGESDPLEGFSWRGGSERDTTGILMWSDIFLHDYPNGDKIAIILLDTQGAFDSQSTVRDCATVFALSTMLSSVQIYNLSQNIQEDDLQHLQLFTEYGRLALADTGKKPFQRLQFLVRDWSFPYEAEYGALGGDKILKRRLEVSDKQHPELQSLRRHISSCFTEVACFLMPHPGLNVATNPKFDGRLQDITPEFKSSLRSLVPMLLAPDNLVYKEISGQRVRARDLIQYFQSYMNIYKGNELGEPKSMLVATAEANHLTAVAAAKELYCQLMEEVCGGTRPYLSTAHLQTEHLRVKDKALFQFAAKRKMGGEEFTEKFRKQLEDDLEEVFTNYQAHNESKN	binds	
cytoDATL (aa 1-415) G343C, K320E, E328R (domain or fragment, Cy3 maleimide on the engineered cysteine G343C) MGGSAVQVINASEEHTFVLNEDALSEVLMRDEVKDRFVCVVSVAGAFRKGKSFLLDFFLRYMYSKYVHHDATDWLGGESDPLEGFSWRGGSERDTTGILMWSDIFLHDYPNGDKIAIILLDTQGAFDSQSTVRDCATVFALSTMLSSVQIYNLSQNIQEDDLQHLQLFTEYGRLALADTGKKPFQRLQFLVRDWSFPYEAEYGALGGDKILKRRLEVSDKQHPELQSLRRHISSCFTEVACFLMPHPGLNVATNPKFDGRLQDITPEFKSSLRSLVPMLLAPDNLVYKEISGQRVRARDLIQYFQSYMNIYKGNELPEPESMLVATARANHLTAVAAAKELYCQLMEEVCGGTRPYLSTAHLQTEHLRVKDKALFQFAAKRKMGGEEFTEKFRKQLEDDLEEVFTNYQAHNESKN		binding result [2]: binds
cytoDATL (aa 1-415) K320G with mCerulean3 at the C terminus (domain or fragment) MGGSAVQVINASEEHTFVLNEDALSEVLMRDEVKDRFVCVVSVAGAFRKGKSFLLDFFLRYMYSKYVHHDATDWLGGESDPLEGFSWRGGSERDTTGILMWSDIFLHDYPNGDKIAIILLDTQGAFDSQSTVRDCATVFALSTMLSSVQIYNLSQNIQEDDLQHLQLFTEYGRLALADTGKKPFQRLQFLVRDWSFPYEAEYGALGGDKILKRRLEVSDKQHPELQSLRRHISSCFTEVACFLMPHPGLNVATNPKFDGRLQDITPEFKSSLRSLVPMLLAPDNLVYKEISGQRVRARDLIQYFQSYMNIYKGNELPEPGSMLVATAEANHLTAVAAAKELYGQLMEEVCGGTRPYLSTAHLQTEHLRVKDKALFQFAAKRKMGGEEFTEKFRKQLEDDLEEVFTNYQAHNESKN		binding result [3]: binds
cytoDATL (aa 1-415) G343C, K320G (domain or fragment, Cy3 maleimide on the engineered cysteine G343C in the PIFE assays; unlabelled in cross-linking) MGGSAVQVINASEEHTFVLNEDALSEVLMRDEVKDRFVCVVSVAGAFRKGKSFLLDFFLRYMYSKYVHHDATDWLGGESDPLEGFSWRGGSERDTTGILMWSDIFLHDYPNGDKIAIILLDTQGAFDSQSTVRDCATVFALSTMLSSVQIYNLSQNIQEDDLQHLQLFTEYGRLALADTGKKPFQRLQFLVRDWSFPYEAEYGALGGDKILKRRLEVSDKQHPELQSLRRHISSCFTEVACFLMPHPGLNVATNPKFDGRLQDITPEFKSSLRSLVPMLLAPDNLVYKEISGQRVRARDLIQYFQSYMNIYKGNELPEPGSMLVATAEANHLTAVAAAKELYCQLMEEVCGGTRPYLSTAHLQTEHLRVKDKALFQFAAKRKMGGEEFTEKFRKQLEDDLEEVFTNYQAHNESKN	binds	
cytoDATL (aa 1-415) G343C, K320N (domain or fragment, Cy3 maleimide on the engineered cysteine G343C in the PIFE assays; unlabelled in cross-linking) MGGSAVQVINASEEHTFVLNEDALSEVLMRDEVKDRFVCVVSVAGAFRKGKSFLLDFFLRYMYSKYVHHDATDWLGGESDPLEGFSWRGGSERDTTGILMWSDIFLHDYPNGDKIAIILLDTQGAFDSQSTVRDCATVFALSTMLSSVQIYNLSQNIQEDDLQHLQLFTEYGRLALADTGKKPFQRLQFLVRDWSFPYEAEYGALGGDKILKRRLEVSDKQHPELQSLRRHISSCFTEVACFLMPHPGLNVATNPKFDGRLQDITPEFKSSLRSLVPMLLAPDNLVYKEISGQRVRARDLIQYFQSYMNIYKGNELPEPNSMLVATAEANHLTAVAAAKELYCQLMEEVCGGTRPYLSTAHLQTEHLRVKDKALFQFAAKRKMGGEEFTEKFRKQLEDDLEEVFTNYQAHNESKN	binds	
